{"source": "patent US10961298", "about": "(GOVERNMENT OF THE UNITED STATES AS REPRESENTED BY THE …, dated 2021)", "key": {"[1]": {"target": "T1, Hcp (hemolysin co-regulated protein, T6SS needle protein) of Acinetobacter baumannii AB5075, recombinant, … (Acinetobacter baumannii (strain AB5075))", "T1 construct": "Cloned NcoI/XhoI into pET22b, overexpressed in E. coli and purified on a nickel column; also called full-length Hcp protein; purified Hcp protein", "T1 chain": "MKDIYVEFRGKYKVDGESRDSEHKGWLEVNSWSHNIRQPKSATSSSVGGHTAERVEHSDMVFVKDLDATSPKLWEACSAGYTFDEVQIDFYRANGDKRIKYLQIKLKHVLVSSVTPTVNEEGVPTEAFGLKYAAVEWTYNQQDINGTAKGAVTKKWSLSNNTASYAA", "assay": "screening of hybridoma clones for binding to Hcp antigen"}, "[2]": {"target": "T2, Hcp peptide VNSWSHNIRQPKSAT (Acinetobacter baumannii)", "T2 peptide": "VNSWSHNIRQPKSAT", "assay": "peptide ELISA, peptide on plate, anti-mouse HRP, OD450"}, "[3]": {"target": "T3, Hcp peptide SAGYTFDEVQIDFYR (Acinetobacter baumannii)", "T3 peptide": "SAGYTFDEVQIDFYR", "assay": "peptide ELISA, peptide on plate, anti-mouse HRP, OD450"}, "[4]": {"target": "T4, Hcp peptide EHKGWLEVNSWSHN (Acinetobacter baumannii)", "T4 peptide": "EHKGWLEVNSWSHN", "assay": "peptide ELISA, peptide on plate, anti-mouse HRP, OD450"}, "[5]": {"target": "T5, Hcp peptide SVTPTVNEEGVPTEA (Acinetobacter baumannii)", "T5 peptide": "SVTPTVNEEGVPTEA", "assay": "peptide ELISA, peptide on plate, anti-mouse HRP, OD450"}, "[6]": {"target": "T6, Hcp peptide EEGVPTEAFGLKYAA (Acinetobacter baumannii)", "T6 peptide": "EEGVPTEAFGLKYAA", "assay": "peptide ELISA, peptide on plate, anti-mouse HRP, OD450"}, "[7]": {"target": "T7, Hcp peptide TSSSVGGHTAERVEH (Acinetobacter baumannii)", "T7 peptide": "TSSSVGGHTAERVEH", "assay": "peptide ELISA, peptide on plate, anti-mouse HRP, OD450"}, "[8]": {"target": "T8, Hcp peptide RANGDKRIKYLQIKL (Acinetobacter baumannii)", "T8 peptide": "RANGDKRIKYLQIKL", "assay": "peptide ELISA, peptide on plate, anti-mouse HRP, OD450"}, "[9]": {"target": "T9, Hcp peptide KWSLSNNTASYAA (Acinetobacter baumannii)", "T9 peptide": "KWSLSNNTASYAA", "assay": "peptide ELISA, peptide on plate, anti-mouse HRP, OD450"}, "[10]": {"target": "T10, Hcp peptide IRQPKSATSSSVGGH (Acinetobacter baumannii)", "T10 peptide": "IRQPKSATSSSVGGH", "assay": "peptide ELISA, peptide on plate, anti-mouse HRP, OD450"}, "[11]": {"target": "T11, Hcp peptide AKGAVTKKWSLSNNT (Acinetobacter baumannii)", "T11 peptide": "AKGAVTKKWSLSNNT", "assay": "peptide ELISA, peptide on plate, anti-mouse HRP, OD450"}, "[12]": {"target": "T12, Hcp peptide HSDMVFVKDLDATSP (Acinetobacter baumannii)", "T12 peptide": "HSDMVFVKDLDATSP", "assay": "peptide ELISA, peptide on plate, anti-mouse HRP, OD450"}, "[13]": {"target": "T13, Hcp peptide #1 MKDIYVEFRGKYKVD (Acinetobacter baumannii)", "T13 construct": "also called amino terminus peptide; N-terminus peptide", "T13 peptide": "MKDIYVEFRGKYKVD", "assay": "peptide ELISA, peptide on plate, anti-mouse HRP, OD450"}, "[14]": {"target": "T14, Hcp peptide AFGLKYAAVEWTYNQ (Acinetobacter baumannii)", "T14 peptide": "AFGLKYAAVEWTYNQ", "assay": "peptide ELISA, peptide on plate, anti-mouse HRP, OD450"}, "[15]": {"target": "T15, Hcp peptide AVEWTYNQQDINGTA (Acinetobacter baumannii)", "T15 peptide": "AVEWTYNQQDINGTA", "assay": "peptide ELISA, peptide on plate, anti-mouse HRP, OD450"}, "[16]": {"target": "T16, Hcp peptide QQDINGTAKGAVTKK (Acinetobacter baumannii)", "T16 peptide": "QQDINGTAKGAVTKK", "assay": "peptide ELISA, peptide on plate, anti-mouse HRP, OD450"}, "[17]": {"target": "T17, Hcp peptide FRGKYKVDGESRDSE (Acinetobacter baumannii)", "T17 peptide": "FRGKYKVDGESRDSE", "assay": "peptide ELISA, peptide on plate, anti-mouse HRP, OD450"}, "[18]": {"target": "T18, Hcp peptide IKYLQIKLKHVLVSS (Acinetobacter baumannii)", "T18 peptide": "IKYLQIKLKHVLVSS", "assay": "peptide ELISA, peptide on plate, anti-mouse HRP, OD450"}, "[19]": {"target": "T19, Hcp peptide PKLWEACSAGYTFDE (Acinetobacter baumannii)", "T19 peptide": "PKLWEACSAGYTFDE", "assay": "peptide ELISA, peptide on plate, anti-mouse HRP, OD450"}, "[20]": {"target": "T20, Hcp peptide HTAERVEHSDMVFVK (Acinetobacter baumannii)", "T20 peptide": "HTAERVEHSDMVFVK", "assay": "peptide ELISA, peptide on plate, anti-mouse HRP, OD450"}, "[21]": {"target": "T21, Hcp peptide DGESRDSEHKGWLEV (Acinetobacter baumannii)", "T21 peptide": "DGESRDSEHKGWLEV", "assay": "peptide ELISA, peptide on plate, anti-mouse HRP, OD450"}, "[22]": {"target": "T22, Hcp peptide LKHVLVSSVTPTVNE (Acinetobacter baumannii)", "T22 peptide": "LKHVLVSSVTPTVNE", "assay": "peptide ELISA, peptide on plate, anti-mouse HRP, OD450"}, "[23]": {"target": "T23, Hcp peptide EVQIDFYRANGDKRI (Acinetobacter baumannii)", "T23 peptide": "EVQIDFYRANGDKRI", "assay": "peptide ELISA, peptide on plate, anti-mouse HRP, OD450"}, "[24]": {"target": "T24, Hcp peptide KDLDATSPKLWEACS (Acinetobacter baumannii)", "T24 peptide": "KDLDATSPKLWEACS", "assay": "peptide ELISA, peptide on plate, anti-mouse HRP, OD450"}}}
{"binder": "13F7 anti-Hcp monoclonal antibody (antibody, V domains shown, Mouse monoclonal antibody from a hybridoma; also called αHcp; 13F7 αHcp antibody) VH: EVQLQESGGGLVQPGGSMKLSCVVSGFIFSSYWMSWVRQSPEKGLEWLAEIRLKSDNYVTLYAESVKGKFTISRDDSKSRLFLQMNTLRAEDTGIYYCTRSYHALDYWGQGTSVTVSS VL: DIVMAQSPSSLNVSAGDKVTMSCKSSQSLLNSGNQRNYLAWYQQKPGQPPKLLIYGASTRESGVPDRFTGSGSGTDFTLTISSVQAEDLAVYYCQNDHIYPFTFGSGTKLEIK", "values": [{"measurement": "binding result", "setting": "[1]", "value": "binds"}, {"measurement": "binding result", "setting": "[2]", "value": "no binding"}, {"measurement": "binding result", "setting": "[3]", "value": "no binding"}, {"measurement": "binding result", "setting": "[4]", "value": "no binding"}, {"measurement": "binding result", "setting": "[5]", "value": "no binding"}, {"measurement": "binding result", "setting": "[6]", "value": "no binding"}, {"measurement": "binding result", "setting": "[7]", "value": "no binding"}, {"measurement": "binding result", "setting": "[8]", "value": "no binding"}, {"measurement": "binding result", "setting": "[9]", "value": "no binding"}, {"measurement": "binding result", "setting": "[10]", "value": "no binding"}, {"measurement": "binding result", "setting": "[11]", "value": "no binding"}, {"measurement": "binding result", "setting": "[12]", "value": "no binding"}, {"measurement": "binding result", "setting": "[13]", "value": "binds"}, {"measurement": "binding result", "setting": "[14]", "value": "no binding"}, {"measurement": "binding result", "setting": "[15]", "value": "no binding"}, {"measurement": "binding result", "setting": "[16]", "value": "no binding"}, {"measurement": "binding result", "setting": "[17]", "value": "no binding"}, {"measurement": "binding result", "setting": "[18]", "value": "no binding"}, {"measurement": "binding result", "setting": "[19]", "value": "no binding"}, {"measurement": "binding result", "setting": "[20]", "value": "no binding"}, {"measurement": "binding result", "setting": "[21]", "value": "no binding"}, {"measurement": "binding result", "setting": "[22]", "value": "no binding"}, {"measurement": "binding result", "setting": "[23]", "value": "no binding"}, {"measurement": "binding result", "setting": "[24]", "value": "no binding"}]}
